Measurements published in article PMC10613257 (2023).

Target: insulin-like growth factor binding protein 5 (IGFBP5), full length, wild type (UniProt P24593 21-272, labelled with FAM-maleimide, 6-isomer after reduction with TCEP (in the fluorescence polarisation assay))
Experiment: FP

Chain of insulin-like growth factor binding protein 5 (IGFBP5), full length, wild type (P24593 21-272): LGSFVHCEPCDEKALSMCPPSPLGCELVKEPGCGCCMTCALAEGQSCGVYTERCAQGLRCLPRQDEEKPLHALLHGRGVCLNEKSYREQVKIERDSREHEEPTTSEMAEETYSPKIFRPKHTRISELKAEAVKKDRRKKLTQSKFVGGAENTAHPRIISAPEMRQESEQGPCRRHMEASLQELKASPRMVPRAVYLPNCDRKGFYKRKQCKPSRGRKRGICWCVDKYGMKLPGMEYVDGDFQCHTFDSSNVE

B1: PAPP-A E483A (catalytically inactive) (enzyme)
chain: REARGATEEPSPPSRALYFSGRGEQLRLRADLELPRDAFTLQVWLRAEGGQRSPAVITGLYDKCSYISRDRGWVVGIHTISDQDNKDPRYFFSLKTDRARQVTTINAHRSYLPGQWVYLAATYDGQFMKLYVNGAQVATSGEQVGGIFSPLTQKCKVLMLGGSALNHNYRGYIEHFSLWKVARTQREILSDMETHGAHTALPQLLLQENWDNVKHAWSPMKDGSSPKVEFSNAHGFLLDTSLEPPLCGQTLCDNTEVIASYNQLSSFRQPKVVRYRVVNLYEDDHKNPTVTREQVDFQHHQLAEAFKQYNISWELDVLEVSNSSLRRRLILANCDISKIGDENCDPECNHTLTGHDGGDCRHLRHPAFVKKQHNGVCDMDCNYERFNFDGGECCDPEITNVTQTCFDPDSPHRAYLDVNELKNILKLDGSTHLNIFFAKSSEEELAGVATWPWDKEALMHLGGIVLNPSFYGMPGHTHTMIHAIGHSLGLYHVFRGISEIQSCSDPCMETEPSFETGDLCNDTNPAPKHKSCGDPGPGNDTCGFHSFFNTPYNNFMSYADDDCTDSFTPNQVARMHCYLDLVYQGWQPSRKPAPVALAPQVLGHTTDSVTLEWFPPIDGHFFERELGSACHLCLEGRILVQYASNASSPMPCSPSGHWSPREAEGHPDVEQPCKSSVRTWSPNSAVNPHTVPPACPEPQGCYLELEFLYPLVPESLTIWVTFVSTDWDSSGAVNDIKLLAVSGKNISLGPQNVFCDVPLTIRLWDVGEEVYGIQIYTLDEHLEIDAAMLTSTADTPLCLQCKPLKYKVVRDPPLQMDVASILHLNRKFVDMDLNLGSVYQYWVITISGTEESEPSPAVTYIHGSGYCGDGIIQKDQGEQCDDMNKINGDGCSLFCRQEVSFNCIDEPSRCYFHDGDGVCEEFEQKTSIKDCGVYTPQGFLDQWASNASVSHQDQQCPGWVIIGQPAASQVCRTKVIDLSEGISQHAWYPCTISYPYSQLAQTTFWLRAYFSQPMVAAAVIVHLVTDGTYYGDQKQETISVQLLDTKDQSHDLGLHVLSCRNNPLIIPVVHDLSQPFYHSQAVRVSFSSPLVAISGVALRSFDNFDPVTLSSCQRGETYSPAEQSCVHFACEKTDCPELAVENASLNCSSSDRYHGAQCTVSCRTGYVLQIRRDDELIKSQTGPSVTVTCTEGKWNKQVACEPVDCSIPDHHQVYAASFSCPEGTTFGSQCSFQCRHPAQLKGNNSLLTCMEDGLWSFPEALCELMCLAPPPVPNADLQTARCRENKHKVGSFCKYKCKPGYHVPGSSRKSKKRAFKTQCTQDGSWQEGACVPVTCDPPPPKFHGLYQCTNGFQFNSECRIKCEDSDASQGLGSNVIHCRKDGTWNGSFHVCQEMQGQCSVPNELNSNLKLQCPDGYAIGSECATSCLDHNSESIILPMNVTVRDIPHWLNPTRVERVVCTAGLKWYPHPALIHCVKGCEPFMGDNYCDAINNRAFCNYDGGDCCTSTVKTKKVTPFPMSCDLQGDCACRDPQAQEHSRKDLRGYSHG
Kd: 237 nM
